Test results taken from PMC12346409, “Amphiphilic Oligonucleotide Derivatives as a Tool to Study DNA Repair Proteins”.

Tests used:
[1] = target: T1, PARP1 (human, UniProt P09874 1-1014); assay: photo-cross-linking; no NAD+; 200 nM PARP1, 100 nM DNA; EMSA: 50 mM Tris-HCl pH 8.0, 20 mM NaCl, 0.25 mM EDTA, 5% glycerol, 0.025% NP-40, 37 °C 20 min; 8% PAAG, 0.5x TBE, 10 °C; conditions: protein: recombinant; label: 5'-32P; 5' overhang 4 nt on strand 1; other end blunt
[2] = target: PARP2 (human, UniProt Q9UGN5 1-583); assay: photo-cross-linking; no NAD+; 200 nM PARP2, 100 nM DNA; EMSA: 50 mM Tris-HCl pH 8.0, 20 mM NaCl, 0.25 mM EDTA, 5% glycerol, 0.025% NP-40, 37 °C 20 min; 8% PAAG, 0.5x TBE, 10 °C; conditions: protein: recombinant; label: 5'-32P; 5' overhang 4 nt on strand 1; other end blunt
Sequence of PARP2 (Q9UGN5 whole entry): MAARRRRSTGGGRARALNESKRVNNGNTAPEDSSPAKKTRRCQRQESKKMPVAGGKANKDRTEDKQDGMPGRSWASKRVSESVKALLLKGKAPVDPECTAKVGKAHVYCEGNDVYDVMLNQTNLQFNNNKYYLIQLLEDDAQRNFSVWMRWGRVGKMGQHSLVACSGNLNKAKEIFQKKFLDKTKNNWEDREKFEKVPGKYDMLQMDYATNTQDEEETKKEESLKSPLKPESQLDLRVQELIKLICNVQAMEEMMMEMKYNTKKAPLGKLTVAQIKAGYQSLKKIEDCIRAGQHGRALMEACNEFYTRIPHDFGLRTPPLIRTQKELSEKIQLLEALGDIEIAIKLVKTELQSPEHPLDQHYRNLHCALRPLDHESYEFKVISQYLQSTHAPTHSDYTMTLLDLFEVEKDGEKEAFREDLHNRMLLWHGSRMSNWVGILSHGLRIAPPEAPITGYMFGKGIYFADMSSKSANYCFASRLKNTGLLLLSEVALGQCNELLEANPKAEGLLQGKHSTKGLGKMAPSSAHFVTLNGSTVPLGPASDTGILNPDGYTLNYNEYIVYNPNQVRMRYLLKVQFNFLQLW

[3] = target: Ku antigen (Ku70/Ku80) (UniProt P12956;P13010 1-609;1-732); assay: photo-cross-linking; 100 nM DNA, 100 nM protein; Ku70 and Ku80 labelled; EMSA: 50 mM Tris-HCl pH 8.0, 20 mM NaCl, 0.25 mM EDTA, 5% glycerol, 0.025% NP-40, 37 °C 20 min; 8% PAAG, 0.5x TBE, 10 °C; conditions: copies: 1;1; nicked duplex, blunt ends, strands 1 and 2 paired to strand 3
Sequence of Ku antigen (Ku70/Ku80) (P12956 whole entry, chain 1 of 2): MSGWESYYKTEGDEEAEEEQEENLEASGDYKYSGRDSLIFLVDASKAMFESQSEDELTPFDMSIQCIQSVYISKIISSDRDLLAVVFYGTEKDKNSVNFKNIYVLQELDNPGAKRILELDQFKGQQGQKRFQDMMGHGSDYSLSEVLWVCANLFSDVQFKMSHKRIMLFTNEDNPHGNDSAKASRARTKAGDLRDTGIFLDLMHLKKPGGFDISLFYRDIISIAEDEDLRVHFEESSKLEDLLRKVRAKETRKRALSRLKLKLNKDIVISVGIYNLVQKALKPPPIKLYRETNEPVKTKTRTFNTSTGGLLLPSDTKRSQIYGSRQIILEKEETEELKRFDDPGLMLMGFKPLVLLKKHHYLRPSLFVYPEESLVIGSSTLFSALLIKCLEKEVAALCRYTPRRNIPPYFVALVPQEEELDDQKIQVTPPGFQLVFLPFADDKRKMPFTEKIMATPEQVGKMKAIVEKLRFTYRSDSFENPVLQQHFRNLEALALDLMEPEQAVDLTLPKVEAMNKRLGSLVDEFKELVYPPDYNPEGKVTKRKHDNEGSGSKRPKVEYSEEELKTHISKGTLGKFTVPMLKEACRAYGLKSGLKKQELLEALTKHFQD
Sequence of Ku antigen (Ku70/Ku80) (P13010 whole entry, chain 2 of 2): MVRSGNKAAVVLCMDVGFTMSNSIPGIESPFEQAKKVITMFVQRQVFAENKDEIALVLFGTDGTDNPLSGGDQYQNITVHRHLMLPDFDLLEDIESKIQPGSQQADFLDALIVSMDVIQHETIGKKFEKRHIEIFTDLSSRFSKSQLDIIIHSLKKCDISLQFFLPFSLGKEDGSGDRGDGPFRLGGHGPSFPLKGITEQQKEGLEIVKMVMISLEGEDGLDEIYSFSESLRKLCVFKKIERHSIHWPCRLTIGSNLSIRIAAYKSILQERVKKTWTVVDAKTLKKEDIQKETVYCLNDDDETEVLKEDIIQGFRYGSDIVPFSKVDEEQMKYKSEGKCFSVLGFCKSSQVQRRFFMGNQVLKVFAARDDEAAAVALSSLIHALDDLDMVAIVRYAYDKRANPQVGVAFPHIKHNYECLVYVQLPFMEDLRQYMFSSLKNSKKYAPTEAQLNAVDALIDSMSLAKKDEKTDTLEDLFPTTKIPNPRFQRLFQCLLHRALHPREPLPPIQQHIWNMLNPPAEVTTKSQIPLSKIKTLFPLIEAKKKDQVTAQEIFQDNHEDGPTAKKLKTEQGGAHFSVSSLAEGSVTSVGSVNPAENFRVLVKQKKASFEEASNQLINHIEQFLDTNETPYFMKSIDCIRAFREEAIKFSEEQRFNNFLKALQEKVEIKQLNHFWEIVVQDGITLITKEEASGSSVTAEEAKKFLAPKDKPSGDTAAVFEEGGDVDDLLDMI

[4] = target: T1, PARP1; assay: photo-cross-linking; 100 nM DNA, 100 nM protein; EMSA: 50 mM Tris-HCl pH 8.0, 20 mM NaCl, 0.25 mM EDTA, 5% glycerol, 0.025% NP-40, 37 °C 20 min; 8% PAAG, 0.5x TBE, 10 °C; conditions: protein: recombinant; nicked duplex, blunt ends, strands 1 and 2 paired to strand 3
[5] = target: T2, PARP3 (UniProt Q9Y6F1 1-533); assay: EMSA; 10 nM DNA, up to 10-fold PARP3 excess; EMSA: 50 mM Tris-HCl pH 8.0, 20 mM NaCl, 0.25 mM EDTA, 5% glycerol, 0.025% NP-40, 37 °C 20 min; 8% PAAG, 0.5x TBE, 10 °C; conditions: protein: recombinant; label: 5'-32P on O1-Pho strand; 5' overhang 5 nt on strand 1 as printed; other end blunt
T2 sequence: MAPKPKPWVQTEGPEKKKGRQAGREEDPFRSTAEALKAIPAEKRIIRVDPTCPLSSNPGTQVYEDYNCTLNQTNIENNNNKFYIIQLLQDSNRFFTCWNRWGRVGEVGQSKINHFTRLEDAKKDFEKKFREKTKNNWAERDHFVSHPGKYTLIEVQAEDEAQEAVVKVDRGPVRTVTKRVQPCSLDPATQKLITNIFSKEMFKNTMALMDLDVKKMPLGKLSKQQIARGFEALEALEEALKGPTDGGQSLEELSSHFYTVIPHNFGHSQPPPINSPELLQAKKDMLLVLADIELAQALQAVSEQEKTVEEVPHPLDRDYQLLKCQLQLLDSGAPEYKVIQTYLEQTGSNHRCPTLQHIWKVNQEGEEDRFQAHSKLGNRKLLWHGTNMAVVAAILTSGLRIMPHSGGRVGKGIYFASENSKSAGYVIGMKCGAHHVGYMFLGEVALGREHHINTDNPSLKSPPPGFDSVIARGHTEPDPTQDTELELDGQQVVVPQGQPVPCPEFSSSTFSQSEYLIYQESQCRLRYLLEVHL

T1 sequence (P09874 whole entry): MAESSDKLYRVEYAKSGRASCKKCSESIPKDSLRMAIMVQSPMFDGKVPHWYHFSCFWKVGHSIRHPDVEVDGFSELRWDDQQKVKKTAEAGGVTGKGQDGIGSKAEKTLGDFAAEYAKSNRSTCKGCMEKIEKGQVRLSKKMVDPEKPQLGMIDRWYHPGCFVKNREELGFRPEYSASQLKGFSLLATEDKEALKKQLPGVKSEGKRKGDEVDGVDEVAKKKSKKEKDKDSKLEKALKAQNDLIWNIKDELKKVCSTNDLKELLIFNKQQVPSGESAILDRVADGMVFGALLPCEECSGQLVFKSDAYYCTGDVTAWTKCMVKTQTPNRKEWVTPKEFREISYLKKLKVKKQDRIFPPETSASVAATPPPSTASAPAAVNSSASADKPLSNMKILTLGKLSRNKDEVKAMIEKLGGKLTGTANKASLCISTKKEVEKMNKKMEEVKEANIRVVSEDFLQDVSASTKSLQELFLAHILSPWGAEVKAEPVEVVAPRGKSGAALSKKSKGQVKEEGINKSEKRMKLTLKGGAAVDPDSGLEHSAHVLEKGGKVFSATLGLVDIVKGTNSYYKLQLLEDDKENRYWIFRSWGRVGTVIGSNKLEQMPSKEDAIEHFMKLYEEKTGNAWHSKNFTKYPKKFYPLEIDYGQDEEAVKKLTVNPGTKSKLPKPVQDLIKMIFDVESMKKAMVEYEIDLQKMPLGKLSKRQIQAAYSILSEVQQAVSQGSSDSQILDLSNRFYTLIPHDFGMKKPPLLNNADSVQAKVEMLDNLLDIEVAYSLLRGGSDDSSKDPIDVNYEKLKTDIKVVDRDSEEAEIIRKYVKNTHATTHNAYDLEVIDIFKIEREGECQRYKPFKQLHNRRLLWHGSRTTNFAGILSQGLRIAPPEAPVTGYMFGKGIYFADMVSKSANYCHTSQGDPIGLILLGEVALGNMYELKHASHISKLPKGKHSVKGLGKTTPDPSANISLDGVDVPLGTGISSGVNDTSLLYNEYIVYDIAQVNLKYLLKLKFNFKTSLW

B1: Pho-DNA-R (dsDNA)
DNA 1: TCCTGACATACTTGATACTTAGACATTCTT
DNA 2: AAGAATGTCTAAGTATCAAGTATGTC
modifications: 3'-terminal FAP-dCMP (photoactivatable C) on strand 2
B1: binds [1]; binds [2].

B2: Pho-dRP (dsDNA)
DNA 1: GGCGACTAAGCCGGGC
DNA 2: AACGCCAGGGCCTCCC
DNA 3: GGGAGGCCCTGGCGTTGCCCGGCTTAGTCGCC
modifications: 3'-terminal FAP-dCMP on strand 1; 5'-dRP on strand 2
B2: binds [3]; binds [4].

B3: DNA-R (EMSA, O-R/O1-Pho) (dsDNA)
DNA 1: TCCTGACATACTTGATACTTAGACATTCTT
DNA 2: AAGAATGTCTAAGTATCAAGTATGT
B3: no binding [5].
